Molecular target: VEGF-165 (UniProt P15692-4 27-191)
Assay: magnetic bead capture with fluorescent complementary probe (fluorescence rebound); 50 uM KCl, 1 mM Mg2+, pH 7.0; linear 0.2-2.0 ng/mL VEGF in plasma, LOD 0.0445 ng/mL; 1X TBSE: 10 mM Tris, 0.05 mM EDTA, 100 mM NaCl, 1 mM MgCl2, 50 uM KCl, pH 7.0; 0.1 uM aptamer (95 C 3 min, cooled), 25 C, 45 min
Conditions: protein: commercial; chain copies: 2; label: 5'-biotin; G-quadruplex

Chain of VEGF-165 (P15692 other isoform, or with tags, fused parts or gaps): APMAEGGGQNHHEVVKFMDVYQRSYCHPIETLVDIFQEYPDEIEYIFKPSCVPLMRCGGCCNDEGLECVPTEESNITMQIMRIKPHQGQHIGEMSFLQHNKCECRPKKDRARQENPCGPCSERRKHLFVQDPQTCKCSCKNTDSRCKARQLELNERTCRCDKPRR

TGTGGGGGTGGACGGGCCGGGTAGA (structured_DNA) [VEGF aptamer (APT)]: binds.
